# Experimental data published in patent US20210388087A1 (Chugai, published 2021).
# Target: T1, CD3 epsilon homodimer protein (UniProt P07766 23-126)
# T1 construct: immobilized on Sensor chip CM4 by amine coupling; also called CD3 (CD3 epsilon)
# Experiment: SPR (Biacore T200), CD3 epsilon homodimer on CM4 chip, one-arm antibody as analyte, 25 C;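 also: homodimer attached to the sensor surface via amine coupling, HBS-EP+ used as running buffer during binding runs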
# T1 sequence (P07766 23-126): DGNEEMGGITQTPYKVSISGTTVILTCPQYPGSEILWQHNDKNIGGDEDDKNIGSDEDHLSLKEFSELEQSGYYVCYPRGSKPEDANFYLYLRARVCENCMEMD
row,ratio of amounts bound (altered form / CE115HA000),Binder
1,0.17,"CE115HA000 H35A one-arm antibody (antibody, human IgG1, kappa, L234A L235A, N297A, name in Kabat numbering) heavy: QVQLVESGGGVVQPGRSLRLSCAASGFTFSNAWMAWVRQAPGKGLEWVAQIKAKSNNYATYYAESVKGRFTISRDDSKNSLYLQMNSLKTEDTAVYYCRYVHYGAYYGVDAWGQGTTVTVSSASTKGPSVFPLAPSSKSTSGGTAALGCLVKDYFPEPVTVSWNSGALTSGVHTFPAVLQSSGLYSLSSVVTVPSSSLGTQTYICNVNHKPSNTKVDKKVEPKSCDKTHTCPPCPAPEAAGGPSVFLFPPKPKDTLMISRTPEVTCVVVDVSHEDPEVKFNWYVDGVEVHNAKTKPREEQYASTYRVVSVLTVLHQDWLNGKEYKCKVSNKALPAPIEKTISKAKGQPREPQVYTLPPSRCELTKNQVSLSCAVKGFYPSDIAVEWESNGQPENNYKTTPPVLDSDGSFFLVSKLTVDKSRWQQGNVFSCSVMHEALHNHYTQKSLSLSPDYKDDDDK EPKSSDKTHTCPPCPAPELLGGPSVFLFPPKPKDTLMISRTPEVTCVVVDVSHEDPEVKFNWYVDGVEVHNAKTKPREEQYNSTYRVVSVLTVLHQDWLNGKEYKCKVSNKALPAPIEKTISKAKGQPREPQVCTLPPSRDELTKNQVSLWCLVKGFYPSDIAVEWESNGQPENNYKTTPPVLDSDGSFFLYSKLTVDKSRWQQGNVFSCSVMHEALHNRYTQKSLSLSP light: DIVMTQSPLSLPVTPGEPASISCRSSQSLVHSNRNTYLHWYQQKPGQAPRLLIYKVSNRFSGVPDRFSGSGSGTDFTLKISRVEAEDVGVYYCGQGTQVPYTFGQGTKLEIKRTVAAPSVFIFPPSDEQLKSGTASVVCLLNNFYPREAKVQWKVDNALQSGNSQESVTEQDSKDSTYSLSSTLTLSKADYEKHKVYACEVTHQGLSSPVTKSFNRGEC"
2,0.33,"CE115HA000 A32Y one-arm antibody (antibody, human IgG1, kappa, L234A L235A, N297A, name in Kabat numbering) heavy: QVQLVESGGGVVQPGRSLRLSCAASGFTFSNYWMHWVRQAPGKGLEWVAQIKAKSNNYATYYAESVKGRFTISRDDSKNSLYLQMNSLKTEDTAVYYCRYVHYGAYYGVDAWGQGTTVTVSSASTKGPSVFPLAPSSKSTSGGTAALGCLVKDYFPEPVTVSWNSGALTSGVHTFPAVLQSSGLYSLSSVVTVPSSSLGTQTYICNVNHKPSNTKVDKKVEPKSCDKTHTCPPCPAPEAAGGPSVFLFPPKPKDTLMISRTPEVTCVVVDVSHEDPEVKFNWYVDGVEVHNAKTKPREEQYASTYRVVSVLTVLHQDWLNGKEYKCKVSNKALPAPIEKTISKAKGQPREPQVYTLPPSRCELTKNQVSLSCAVKGFYPSDIAVEWESNGQPENNYKTTPPVLDSDGSFFLVSKLTVDKSRWQQGNVFSCSVMHEALHNHYTQKSLSLSPDYKDDDDK EPKSSDKTHTCPPCPAPELLGGPSVFLFPPKPKDTLMISRTPEVTCVVVDVSHEDPEVKFNWYVDGVEVHNAKTKPREEQYNSTYRVVSVLTVLHQDWLNGKEYKCKVSNKALPAPIEKTISKAKGQPREPQVCTLPPSRDELTKNQVSLWCLVKGFYPSDIAVEWESNGQPENNYKTTPPVLDSDGSFFLYSKLTVDKSRWQQGNVFSCSVMHEALHNRYTQKSLSLSP light: DIVMTQSPLSLPVTPGEPASISCRSSQSLVHSNRNTYLHWYQQKPGQAPRLLIYKVSNRFSGVPDRFSGSGSGTDFTLKISRVEAEDVGVYYCGQGTQVPYTFGQGTKLEIKRTVAAPSVFIFPPSDEQLKSGTASVVCLLNNFYPREAKVQWKVDNALQSGNSQESVTEQDSKDSTYSLSSTLTLSKADYEKHKVYACEVTHQGLSSPVTKSFNRGEC"
3,0.15,"CE115HA000 A52aP one-arm antibody (antibody, human IgG1, kappa, L234A L235A, N297A, name in Kabat numbering) heavy: QVQLVESGGGVVQPGRSLRLSCAASGFTFSNAWMHWVRQAPGKGLEWVAQIKPKSNNYATYYAESVKGRFTISRDDSKNSLYLQMNSLKTEDTAVYYCRYVHYGAYYGVDAWGQGTTVTVSSASTKGPSVFPLAPSSKSTSGGTAALGCLVKDYFPEPVTVSWNSGALTSGVHTFPAVLQSSGLYSLSSVVTVPSSSLGTQTYICNVNHKPSNTKVDKKVEPKSCDKTHTCPPCPAPEAAGGPSVFLFPPKPKDTLMISRTPEVTCVVVDVSHEDPEVKFNWYVDGVEVHNAKTKPREEQYASTYRVVSVLTVLHQDWLNGKEYKCKVSNKALPAPIEKTISKAKGQPREPQVYTLPPSRCELTKNQVSLSCAVKGFYPSDIAVEWESNGQPENNYKTTPPVLDSDGSFFLVSKLTVDKSRWQQGNVFSCSVMHEALHNHYTQKSLSLSPDYKDDDDK EPKSSDKTHTCPPCPAPELLGGPSVFLFPPKPKDTLMISRTPEVTCVVVDVSHEDPEVKFNWYVDGVEVHNAKTKPREEQYNSTYRVVSVLTVLHQDWLNGKEYKCKVSNKALPAPIEKTISKAKGQPREPQVCTLPPSRDELTKNQVSLWCLVKGFYPSDIAVEWESNGQPENNYKTTPPVLDSDGSFFLYSKLTVDKSRWQQGNVFSCSVMHEALHNRYTQKSLSLSP light: DIVMTQSPLSLPVTPGEPASISCRSSQSLVHSNRNTYLHWYQQKPGQAPRLLIYKVSNRFSGVPDRFSGSGSGTDFTLKISRVEAEDVGVYYCGQGTQVPYTFGQGTKLEIKRTVAAPSVFIFPPSDEQLKSGTASVVCLLNNFYPREAKVQWKVDNALQSGNSQESVTEQDSKDSTYSLSSTLTLSKADYEKHKVYACEVTHQGLSSPVTKSFNRGEC"
4,1.34,"CE115HA000 A52aD one-arm antibody (antibody, human IgG1, kappa, L234A L235A, N297A, name in Kabat numbering) heavy: QVQLVESGGGVVQPGRSLRLSCAASGFTFSNAWMHWVRQAPGKGLEWVAQIKDKSNNYATYYAESVKGRFTISRDDSKNSLYLQMNSLKTEDTAVYYCRYVHYGAYYGVDAWGQGTTVTVSSASTKGPSVFPLAPSSKSTSGGTAALGCLVKDYFPEPVTVSWNSGALTSGVHTFPAVLQSSGLYSLSSVVTVPSSSLGTQTYICNVNHKPSNTKVDKKVEPKSCDKTHTCPPCPAPEAAGGPSVFLFPPKPKDTLMISRTPEVTCVVVDVSHEDPEVKFNWYVDGVEVHNAKTKPREEQYASTYRVVSVLTVLHQDWLNGKEYKCKVSNKALPAPIEKTISKAKGQPREPQVYTLPPSRCELTKNQVSLSCAVKGFYPSDIAVEWESNGQPENNYKTTPPVLDSDGSFFLVSKLTVDKSRWQQGNVFSCSVMHEALHNHYTQKSLSLSPDYKDDDDK EPKSSDKTHTCPPCPAPELLGGPSVFLFPPKPKDTLMISRTPEVTCVVVDVSHEDPEVKFNWYVDGVEVHNAKTKPREEQYNSTYRVVSVLTVLHQDWLNGKEYKCKVSNKALPAPIEKTISKAKGQPREPQVCTLPPSRDELTKNQVSLWCLVKGFYPSDIAVEWESNGQPENNYKTTPPVLDSDGSFFLYSKLTVDKSRWQQGNVFSCSVMHEALHNRYTQKSLSLSP light: DIVMTQSPLSLPVTPGEPASISCRSSQSLVHSNRNTYLHWYQQKPGQAPRLLIYKVSNRFSGVPDRFSGSGSGTDFTLKISRVEAEDVGVYYCGQGTQVPYTFGQGTKLEIKRTVAAPSVFIFPPSDEQLKSGTASVVCLLNNFYPREAKVQWKVDNALQSGNSQESVTEQDSKDSTYSLSSTLTLSKADYEKHKVYACEVTHQGLSSPVTKSFNRGEC"
5,0.57,"CE115HA000 A52aE one-arm antibody (antibody, human IgG1, kappa, L234A L235A, N297A, name in Kabat numbering) heavy: QVQLVESGGGVVQPGRSLRLSCAASGFTFSNAWMHWVRQAPGKGLEWVAQIKEKSNNYATYYAESVKGRFTISRDDSKNSLYLQMNSLKTEDTAVYYCRYVHYGAYYGVDAWGQGTTVTVSSASTKGPSVFPLAPSSKSTSGGTAALGCLVKDYFPEPVTVSWNSGALTSGVHTFPAVLQSSGLYSLSSVVTVPSSSLGTQTYICNVNHKPSNTKVDKKVEPKSCDKTHTCPPCPAPEAAGGPSVFLFPPKPKDTLMISRTPEVTCVVVDVSHEDPEVKFNWYVDGVEVHNAKTKPREEQYASTYRVVSVLTVLHQDWLNGKEYKCKVSNKALPAPIEKTISKAKGQPREPQVYTLPPSRCELTKNQVSLSCAVKGFYPSDIAVEWESNGQPENNYKTTPPVLDSDGSFFLVSKLTVDKSRWQQGNVFSCSVMHEALHNHYTQKSLSLSPDYKDDDDK EPKSSDKTHTCPPCPAPELLGGPSVFLFPPKPKDTLMISRTPEVTCVVVDVSHEDPEVKFNWYVDGVEVHNAKTKPREEQYNSTYRVVSVLTVLHQDWLNGKEYKCKVSNKALPAPIEKTISKAKGQPREPQVCTLPPSRDELTKNQVSLWCLVKGFYPSDIAVEWESNGQPENNYKTTPPVLDSDGSFFLYSKLTVDKSRWQQGNVFSCSVMHEALHNRYTQKSLSLSP light: DIVMTQSPLSLPVTPGEPASISCRSSQSLVHSNRNTYLHWYQQKPGQAPRLLIYKVSNRFSGVPDRFSGSGSGTDFTLKISRVEAEDVGVYYCGQGTQVPYTFGQGTKLEIKRTVAAPSVFIFPPSDEQLKSGTASVVCLLNNFYPREAKVQWKVDNALQSGNSQESVTEQDSKDSTYSLSSTLTLSKADYEKHKVYACEVTHQGLSSPVTKSFNRGEC"
6,0.81,"CE115HA000 A52aG one-arm antibody (antibody, human IgG1, kappa, L234A L235A, N297A, name in Kabat numbering) heavy: QVQLVESGGGVVQPGRSLRLSCAASGFTFSNAWMHWVRQAPGKGLEWVAQIKGKSNNYATYYAESVKGRFTISRDDSKNSLYLQMNSLKTEDTAVYYCRYVHYGAYYGVDAWGQGTTVTVSSASTKGPSVFPLAPSSKSTSGGTAALGCLVKDYFPEPVTVSWNSGALTSGVHTFPAVLQSSGLYSLSSVVTVPSSSLGTQTYICNVNHKPSNTKVDKKVEPKSCDKTHTCPPCPAPEAAGGPSVFLFPPKPKDTLMISRTPEVTCVVVDVSHEDPEVKFNWYVDGVEVHNAKTKPREEQYASTYRVVSVLTVLHQDWLNGKEYKCKVSNKALPAPIEKTISKAKGQPREPQVYTLPPSRCELTKNQVSLSCAVKGFYPSDIAVEWESNGQPENNYKTTPPVLDSDGSFFLVSKLTVDKSRWQQGNVFSCSVMHEALHNHYTQKSLSLSPDYKDDDDK EPKSSDKTHTCPPCPAPELLGGPSVFLFPPKPKDTLMISRTPEVTCVVVDVSHEDPEVKFNWYVDGVEVHNAKTKPREEQYNSTYRVVSVLTVLHQDWLNGKEYKCKVSNKALPAPIEKTISKAKGQPREPQVCTLPPSRDELTKNQVSLWCLVKGFYPSDIAVEWESNGQPENNYKTTPPVLDSDGSFFLYSKLTVDKSRWQQGNVFSCSVMHEALHNRYTQKSLSLSP light: DIVMTQSPLSLPVTPGEPASISCRSSQSLVHSNRNTYLHWYQQKPGQAPRLLIYKVSNRFSGVPDRFSGSGSGTDFTLKISRVEAEDVGVYYCGQGTQVPYTFGQGTKLEIKRTVAAPSVFIFPPSDEQLKSGTASVVCLLNNFYPREAKVQWKVDNALQSGNSQESVTEQDSKDSTYSLSSTLTLSKADYEKHKVYACEVTHQGLSSPVTKSFNRGEC"
